Assay results from paper PMC7840982, “Purification of Crimean–Congo hemorrhagic fever virus nucleoprotein and its utility for serological diagnosis” (Scientific Reports, 2021).

Molecular target: the molecule itself
Experiment: negative-stain transmission electron microscopy

B1: Crimean–Congo hemorrhagic fever virus nucleoprotein (strain IbAr10200), recombinant, untagged (natural protein)
chain: MENKIEVNNKDEMNRWFEEFKKGNGLVDTFTNSYSFCESVPNLDRFVFQMASATDDAQKDSIYASALVEATKFCAPIYECAWVSSTGIVKKGLEWFEKNAGTIKSWDESYTELKVDVPKIEQLTGYQQAALKWRKDIGFRVNANTAALSNKVLAEYKVPGEIVMSVKEMLSDMIRRRNLILNRGGDENPRGPVSHEHVDWCREFVKGKYIMAFNPPWGDINKSGRSGIALVATGLAKLAETEGKGIFDEAKKTVEALNGYLDKHKDEVDRASADSMITNLLKHIAKAQELYKNSSALRAQSAQIDTAFSSYYWLYKAGVTPETFPTVSQFLFELGKQPRGTKKMKKALLSTPMKWGKKLYELFADDSFQQNRIYMHPAVLTAGRISEMGVCFGTIPVANPDDAAQGSGHTKSILNLRTNTETNNPCAKTIVKLFEVQKTGFNIQDMDIVASEHLLHQSLVGKQSPFQNAYNVKGNATSANII
notes: also called CCHFV NP; NP
Question: Does B1 bind?
Answer: Result: binds
